Results as given in patent publication US20110093983A1, “ALGAL GLYCEROL-3 PHOSPHATE ACYLTRANSFERASE” (National Research Council of Canada, priority 2008, published 2011).

How the values were obtained:
yeast gat1 mutant [1] = experiment: Fatty acid composition of TAG and phospholipids from yeast gat1 mutant expressing TpGPAT1; type: cell-based, Saccharomyces cerevisiae; conditions: for Proportion of Fatty Acid 16:0 / Proportion of Fatty Acid 16:1 / Proportion of Fatty Acid 18:0 / Proportion of Fatty Acid 18:1 / Proportion of Fatty Acid Sats / Proportion of Fatty Acid Unsats: 3-day induction with 2% galactose, average ± SD, three replicates
Description: (§1) Yeast cultures were grown at 28° C. in the presence of 2% (w/v) glucose and 1% (w/v) Tergitol NP-40 (Sigma, St. Louis, Mo., US). Expression of the transgene was induced at OD600 nm 0.2 to 0.3 by supplementing galactose to 2% (w/v). At that time, the appropriate FAs were added to a final concentration of 50 or 100 μM in the presence of 1% (w/v) Tergitol NP-40 (Sigma, St. Louis, Mo., US). Yeast cells (20 ml) were harvested after a 3-day incubation, total lipids from yeast homogenates were extracted using the procedure of Schneiter (2005). Separation of neutral lipids and polar lipids was performed by running the thin layer chromatography plates (Si 250-PA, Baker, Phillipsburg, N.J.) in a developing solvent of hexane: ether: acetic acid (70:30:1, v/v) and identified by co-migration with known standards. Spots corresponding to TAG and phospholipid were scraped off the TLC plates and were transmethylated with methanolic HCl and quantified by gas chromatography as described previously. (Zheng and Zou, 2001).
To investigate if the over-expression of TpGPAT has any effect on the fatty acids composition of yeast lipids in vivo, the gall cells harboring TpGPAT or an empty vector as control were induced for 3 days by galactose at 28° C. The total lipids was extracted and then separated into triacylglycerols (TAGS) and phospholipids by TLC for the analysis of fatty acid composition. […] Approximately 12% and 18% increase of 16:0 in phospholipids and triacylglycerols, respectively, turned 16:0 into the most dominant fatty acid in the TpGPAT expressing yeast cells, instead of 16:1 fatty acid in the mutant cells harboring the empty vector. Conversely, the unsaturated fatty acids, 16:1 and 18:1, were reduced to 15% and 21% in these two lipid species. […] Collectively, the results strongly support the finding in the in vitro substrate specificity assay that 16:0 is the most preferred substrate for TpGPAT.

yeast gat1 mutant [2] = experiment: Incorporation of fed EPA or DHA into TAGs and phospholipids of yeast gat1 mutant; type: cell-based, Saccharomyces cerevisiae; conditions: for mol % of FA in Phospholipids, DHA / mol % of FA in Phospholipids, EPA / mol % of FA in TAGS, DHA / mol % of FA in TAGS, EPA: 3-day induction
Description: as §1
Yeast gat1 strain transformed with TpGPAT or empty vector pYES2.1 was grown in the presence of EPA or DHA, while being induced by galactose. Triacylglycerols (TAGS) and phospholipids from the 3-day culture were extracted and analyzed by gas chromatography for fatty acid composition. […] It was not clear if this were due to the low GPAT activity for these VLCPUFAs or the lack of EPA and DHA-CoA in the cells.

Brassica napus = experiment: Fatty acid analysis of T1 seeds from TpGPAT transgenic Brassica napus; type: in vivo; conditions: 5 transgenic Brassica napus events; wild-type 4.27-4.64%
Description: FIG. 6 graphically depicts the results of the analysis of the fatty acid 16:0 content of T1 seeds from TpGPAT transgenic Brassica napus. Fatty acid analysis was performed on TpGPAT transformed B. napus seeds. Fatty acid composition (as molar percentage) was determined in the seed oil extracted from T1 seeds of five independent TpGPAT:pSE transformed Brassica napus events (GPAT1, 3, 4, 7 and 12). Wild-type B. napus was used as a control.
The full length coding region of the TpGPAT gene was amplified using pfu DNA polymerase and primers designed with two restriction sites (KpnI and XbaI) added for subsequent cloning. Then, the PCR product was digested and inserted in a plant transformation vector (pSE129A) under the control of a seed-specific promoter (Napin). The binary vector was introduced by electroporation into Agrobacterium tumefaciens strain GV3101 containing helper plasmid pMP90 (Koncz and Schell, 1986).
Brassica napus 5-day-old hypocotyls were also transformed with Agrobacterium containing the TpGPAT/pSE129A construct. Transgenic T0 plants were regenerated, selected for resistance to kanamycin and grown in soil. Individual plants were bagged to allow self-pollination. Presence of the TpGPAT and Kan genes in the resistant plants was verified by PCR with the appropriate primers in 18 independent events. T1 seeds from the first set of 5 transgenic events were harvested and analyzed. […]

B1: TpGPAT1: membrane-bound glycerol-3-phosphate acyltransferase from T. pseudonana, 674 amino acids, SEQ ID NO:2 (nucleotide SEQ ID NO:1) (protein, listed as Thalassiosira pseudonana)
chain: MGVEKKGTMMSELDYTKAQLAFFYIVVLLSLDMLNPVKIFLHVFPAIKSWHIATFAIACMSYIFIVNLRELLYFATKVFFHSILSIFFNDVTVVGRENIPSHGPVIFTSNHANQFMDGLMIMCTCQRTISYLVADKSWNRPIIGHLAWMMGGVPVKRAQDSACKGTGKISIDLNALAGSDAVINVVGKGTSFTSQIKAGDKIRLPNNAIGIKVESIESDESMSLKVEDGVAEVLSSHPFPEYVTYDILPRIDQKDVYQNVLEKLASGGTIGIFPEGGSHDRTDLLPLKVGVALIAYSELEKDGINVPIVPVGLNYFRAHRFRGKATVEFGSPTYIEPSTLADYKKGGADKRRVCNDLLARIENSMRSVIVSVPDFETLQTIHAARRLYRQDGRNETAEQRQDMGRRFAEGYKRVLLQLGGEPPEEWLSLQSRILAYQKELNELGIRDYQVVGLDHEEVELGSESQGHSKADTVLHRMNVFGHIVHLFVIAVLAALPAMLLNLPVGLASRIYSNRRRKVALAASKVKVKGYDVMLSERVLACIVLVPSLWVVYGLLLSLFTSLDGPSLAVCFTCFPLFSYWSIMATESGMVDIKDLRPYVMRMIPSARRRLAALPATRKALRSDLRAMIKKIGPSLGDIYYEKDLNWQKIQMETKRMSMEELDPAQKDEAAKKEE
Proportion of Fatty Acid 16:0 (yeast gat1 mutant [1]; Phospholipids): 31.10 ± 3.78 mol %
Proportion of Fatty Acid 16:1 (yeast gat1 mutant [1]; Phospholipids): 34.15 ± 2.74 mol %
Proportion of Fatty Acid 18:0 (yeast gat1 mutant [1]; Phospholipids): 8.92 ± 1.49 mol %
Proportion of Fatty Acid 18:1 (yeast gat1 mutant [1]; Phospholipids): 25.45 ± 2.25 mol %
Proportion of Fatty Acid Sats (yeast gat1 mutant [1]; Phospholipids): 40.02 ± 4.57 mol %
Proportion of Fatty Acid Unsats (yeast gat1 mutant [1]; Phospholipids): 59.83 ± 4.61 mol %
Proportion of Fatty Acid 16:0 (yeast gat1 mutant [1]; TAG): 41.80 ± 2.17 mol %
Proportion of Fatty Acid 16:1 (yeast gat1 mutant [1]; TAG): 29.15 ± 1.61 mol %
Proportion of Fatty Acid 18:0 (yeast gat1 mutant [1]; TAG): 9.17 ± 1.22 mol %
Proportion of Fatty Acid 18:1 (yeast gat1 mutant [1]; TAG): 18.94 ± 0.99 mol %
Proportion of Fatty Acid Sats (yeast gat1 mutant [1]; TAG): 50.97 ± 2.85 mol %
Proportion of Fatty Acid Unsats (yeast gat1 mutant [1]; TAG): 48.49 ± 2.44 mol %
Increase of 18:0 versus empty vector (yeast gat1 mutant [1]; yeast gat1, both TAG and phospholipids): 3-4%
Reduction of unsaturated fatty acids 16:1 and 18:1 in phospholipids versus empty vector (yeast gat1 mutant [1]; yeast gat1, phospholipids): 15%
Increase of 16:0 in triacylglycerols versus empty vector (yeast gat1 mutant [1]; yeast gat1, triacylglycerols): ~18%
Reduction of unsaturated fatty acids 16:1 and 18:1 in triacylglycerols versus empty vector (yeast gat1 mutant [1]; yeast gat1, triacylglycerols): 21%
mol % of FA in Phospholipids, DHA (yeast gat1 mutant [2]; feeding concentration 50 μM): 0.22 ± 0.03 mol %
mol % of FA in Phospholipids, EPA (yeast gat1 mutant [2]; feeding concentration 50 μM): 0.42 ± 0.01 mol %
mol % of FA in TAGS, DHA (yeast gat1 mutant [2]; feeding concentration 50 μM): 0.70 ± 0.06 mol %
mol % of FA in TAGS, EPA (yeast gat1 mutant [2]; feeding concentration 50 μM): 1.18 mol %
mol % of FA in Phospholipids, DHA (yeast gat1 mutant [2]; feeding concentration 100 μM): 0.34 ± 0.02 mol %
mol % of FA in Phospholipids, EPA (yeast gat1 mutant [2]; feeding concentration 100 μM): 0.85 ± 0.15 mol %
mol % of FA in TAGS, DHA (yeast gat1 mutant [2]; feeding concentration 100 μM): 1.10 ± 0.07 mol %
mol % of FA in TAGS, EPA (yeast gat1 mutant [2]; feeding concentration 100 μM): 3.38 ± 0.78 mol %
Impact on incorporation of LCPUFAs into TAG or phospholipids compared to empty vector control (yeast gat1 mutant [2]; yeast gat1 grown in presence of EPA or DHA, 3-day culture): did not have much impact
16:0 percentage in T1 seeds (Brassica napus): 4.64-6.67%
